Read-outs that look alike come from different tables or passages of the source.
Tests used:
HLA-A*0201 = HLA-A*0201 (Homo sapiens, UniProt P04439, D140Y/D185E/D98H/E176V/E277Q/G131W/G231S/I119V/I121R/I166T/I218V/L300P/L318F/N151K/N90K/P208A/P217A/Q86G/Q94H/R138H/R169H/T345S); test: UV-ligand exchange with ELISA of stabilized MHC complexes; format: binding; settings: class symbol
From the text: Candidate peptides for the vaccines according to the present invention were further tested for immunogenicity by in vitro priming assays. The individual peptide-MHC complexes required for these assays were produced by UV-ligand exchange, where a UV-sensitive peptide is cleaved upon UV-irradiation, and exchanged with the peptide of interest as analyzed. Only peptide candidates that can effectively bind and stabilize the peptide-receptive MHC molecules prevent dissociation of the MHC complexes. To determine the yield of the exchange reaction, an ELISA was performed based on the detection of the light chain (β2m) of stabilized MHC complexes. The assay was performed as generally described in Rodenko et al. (Rodenko B, Toebes M, Hadrup S R, van Esch W J, Molenaar A M, Schumacher T N, Ovaa H. Generation of peptide-MHC class I complexes through UV-mediated ligand exchange. Nat Protoc. 2006; 1(3):1120-32.).
96 well MAXISorp plates (NUNC) were coated over night with 2 ug/ml streptavidin in PBS at room temperature, washed 4× and blocked for 30 min at 37° C. in 2% BSA containing blocking buffer. Refolded HLA-A*0201/MLA-001 monomers served as standards, covering the range of 8-500 ng/ml. Peptide-MHC monomers of the UV-exchange reaction were diluted 100 fold in blocking buffer. Samples were incubated for 1 h at 37° C., washed four times, incubated with 2 ug/ml HRP conjugated anti-β2m for 1 h at 37° C., washed again and detected with TMB solution that is stopped with […]. Absorption was measured at 450 nm.

CD8+ T cells = test: In vitro T-cell priming assay (aAPCs loaded with peptide/MHC and anti-CD28, pMHC multimer readout); format: cell-based, human; settings: for Wells: positive wells
From the text: In order to obtain information regarding the immunogenicity of the TUMAPs of the present invention, we performed investigations using an in vitro T-cell priming assay based on repeated stimulations of CD8+ T cells with artificial antigen presenting cells (aAPCs) loaded with peptide/MHC complexes and anti-CD28 antibody.
In order to perform in vitro stimulations by artificial antigen presenting cells loaded with peptide-MHC complex (pMHC) and anti-CD28 antibody, we first isolated CD8+ T cells from fresh HLA-A*02 leukapheresis products via positive selection using CD8 microbeads (Miltenyi Biotec, Bergisch-Gladbach, Germany) of healthy donors obtained from the Transfusion Medicine Tuebingen, Germany, after informed consent.
Isolated CD8+ lymphocytes or PBMCs were incubated until use in T-cell medium (TCM) consisting of RPMI-Glutamax (Invitrogen, Karlsruhe, Germany) supplemented with 10% heat inactivated human AB serum (PAN-Biotech, Aidenbach, Germany), 100 U/ml Penicillin/100 μg/ml Streptomycin (Cambrex, Cologne, Germany), 1 mM sodium pyruvate (CC Pro, Oberdorla, Germany), 20 μg/ml Gentamycin (Cambrex). 2.5 ng/ml IL-7 (PromoCell, Heidelberg, Germany) and 10 U/ml IL-2 (Novartis Pharma, Nurnberg, Germany) were also added to the TCM at this step.
Generation of pMHC/anti-CD28 coated beads, T-cell stimulations and readout was performed in a highly defined in vitro system using four different pMHC molecules per stimulation condition and 8 different pMHC molecules per readout condition.
All pMHC complexes used for aAPC loading and cytometric readout were derived from UV-induced MHC ligand exchange (Rodenko et al., 2006) with minor modifications. In order to determine the amount of pMHC monomer obtained by exchange we performed streptavidin-based sandwich ELISAs according to (Rodenko et al., 2006).
The purified co-stimulatory mouse IgG2a anti human CD28 Ab 9.3 (Jung et al., 1987) was chemically biotinylated using Sulfo-N-hydroxysuccinimidobiotin as recommended by the manufacturer (Perbio, Bonn, Germany). Beads used were 5.6 μm diameter streptavidin coated polystyrene particles (Bangs Laboratories, Ill., USA).
pMHC used for positive and negative control stimulations were A*0201/MLA-001 (peptide […] from modified Melan-A/MART-1) and A*0201/DDX5-001 ([…] from DDX5), respectively.
800.000 beads/200 μl were coated in 96-well plates in the presence of 4×12.5 ng different biotin-pMHC, washed and 600 ng biotin anti-CD28 were added subsequently in a volume of 200 μl. Stimulations were initiated in 96-well plates by co-incubating 1×10^6 CD8+ T cells with 2×10^5 washed coated beads in 200 μl TCM supplemented with 5 ng/ml IL-12 (PromoCell) for 3-4 days at 37° C. Half of the medium was then exchanged by fresh TCM supplemented with 80 U/ml IL-2 and incubating was continued for 3-4 days at 37° C. This stimulation cycle was performed for a total of three times. For the pMHC multimer readout using 8 different pMHC molecules per condition, a two-dimensional combinatorial coding approach was used as previously described (Andersen et al., 2012) with minor modifications encompassing coupling to 5 different fluorochromes. Finally, multimeric analyses were performed by staining the cells with Live/dead near IR dye (Invitrogen, Karlsruhe, Germany), CD8-FITC antibody clone SK1 (BD, Heidelberg, Germany) and fluorescent pMHC multimers. For analysis, a BD LSRII SORP cytometer equipped with appropriate lasers and filters was used. Peptide specific cells were calculated as percentage of total CD8+ cells. Evaluation of multimeric analysis was done using the FlowJo software (Tree Star, Oreg., USA). In vitro priming of specific multimer+CD8+ lymphocytes was detected by comparing to negative control stimulations.

[1] = in vitro immunogenicity, trifluoro-acetate salts of the peptides
[2] = in vitro immunogenicity, responding healthy donors, trifluoro-acetate salts of the peptides

Substance	Exchange yield (HLA-A*0201)	Wells (CD8+ T cells; [1])	Donors (CD8+ T cells; [2])	further results
TLTNIIHNL (listed as Homo sapiens) [SEQ ID NO 46]	+++ (50%-70%, +++)	–	–	–
ALANQKLYSV (listed as Homo sapiens) [SEQ ID NO 83]	+++ (50%-70%, +++)	–	–	–
SMSGYDQVL (listed as Homo sapiens) [SEQ ID NO 8]	++ (20%-49% = ++)	–	–	–
NLIEKSIYL (listed as Homo sapiens) [SEQ ID NO 4]	++ (20%-49% = ++)	–	–	–
SISDVIAQV (listed as Homo sapiens) [SEQ ID NO 28]	+++ (50%-70%, +++)	–	–	–
GVLENIFGV (listed as Homo sapiens) [SEQ ID NO 47]	++++ (>70 = ++++)	–	–	–
GLTDNIHLV (listed as Homo sapiens) [SEQ ID NO 40]	+++ (50%-70%, +++)	–	–	–
SLIEDLILL (listed as Homo sapiens) [SEQ ID NO 12]	++ (20%-49% = ++)	–	–	–
SLLESNKDLLL (listed as Homo sapiens) [SEQ ID NO 88]	+++ (50%-70%, +++)	–	–	–
KIQEMQHFL (listed as Homo sapiens) [SEQ ID NO 2]	+++ (50%-70%, +++)	–	–	–
NLLAEIHGV (listed as Homo sapiens) [SEQ ID NO 44]	++++ (>70 = ++++)	–	–	–
TVIGFLLPFA (listed as Homo sapiens) [SEQ ID NO 16]	++++ (>70 = ++++)	–	–	–
AIMGFIGFFV (listed as Homo sapiens) [SEQ ID NO 45]	+ (<20% = +)	–	–	–
68 (YVYQNNIYL; listed as Homo sapiens) [compound 68]	–	+ (<20% = +)	+ (<20% = +)	–
53 (YLPHAPPFA; listed as Homo sapiens) [compound 53]	–	++ (20%-49% = ++)	++ (20%-49% = ++)	–
46 (TLTNIIHNL; listed as Homo sapiens) [compound 46]	–	+ (<20% = +)	+++ (50%-70%, +++)	–
9 (ALMDKEGLTAL; listed as Homo sapiens) [compound 9]	–	+ (<20% = +)	+ (<20% = +)	–
61 (TLISRLPAV; listed as Homo sapiens) [compound 61]	–	+ (<20% = +)	+++ (50%-70%, +++)	–
42 (SLWGGDVVL; listed as Homo sapiens) [compound 42]	–	++ (20%-49% = ++)	++++ (>70 = ++++)	Donors (CD8+ T cells): 100%
7 (TLWYRAPEV; listed as Homo sapiens) [compound 7]	–	++ (20%-49% = ++)	++++ (>70 = ++++)	–
57 (GLAEDIDKGEV; listed as Homo sapiens) [compound 57]	–	+ (<20% = +)	++ (20%-49% = ++)	–
22 (FLIPIYHQV; listed as Homo sapiens) [compound 22]	–	+ (<20% = +)	+++ (50%-70%, +++)	–
80 (SLFGNSGILENV; listed as Homo sapiens) [compound 80]	–	+ (<20% = +)	++ (20%-49% = ++)	–
15 (KLAVALLAA; listed as Homo sapiens) [compound 15]	–	++ (20%-49% = ++)	++ (20%-49% = ++)	–
55 (SLADFMQEV; listed as Homo sapiens) [compound 55]	–	+ (<20% = +)	++ (20%-49% = ++)	–
88 (SLLESNKDLLL; listed as Homo sapiens) [compound 88]	–	+ (<20% = +)	++ (20%-49% = ++)	–
40 (GLTDNIHLV; listed as Homo sapiens) [compound 40]	–	+ (<20% = +)	++ (20%-49% = ++)	–
1 (ILFEINPKL; listed as Homo sapiens) [compound 1]	–	+ (<20% = +)	++ (20%-49% = ++)	–

The next lines start with results.

Exchange yield (HLA-A*0201)	Substance	Wells (CD8+ T cells; [1])	Donors (CD8+ T cells; [2])	further results
+++ (50%-70%, +++)	KLVEFDFLGA (listed as Homo sapiens) [SEQ ID NO 54]	–	–	–
++ (20%-49% = ++)	HLLEDIAHV (listed as Homo sapiens) [SEQ ID NO 92]	–	–	–
+++ (50%-70%, +++)	VLAPLFVYL (listed as Homo sapiens) [SEQ ID NO 37]	–	–	–
++ (20%-49% = ++)	VLFPNLKTV (listed as Homo sapiens) [SEQ ID NO 35]	–	–	–
++ (20%-49% = ++)	KLAVALLAA (listed as Homo sapiens) [SEQ ID NO 15]	–	–	–
++++ (>70 = ++++)	ILVSWLPRL (listed as Homo sapiens) [SEQ ID NO 59]	–	–	–
+ (<20% = +)	YLIHFPVSV (listed as Homo sapiens) [SEQ ID NO 13]	–	–	–
+++ (50%-70%, +++)	AMFENFVSV (listed as Homo sapiens) [SEQ ID NO 91]	–	–	–
++ (20%-49% = ++)	ALDENLHQL (listed as Homo sapiens) [SEQ ID NO 3]	–	–	–
++ (20%-49% = ++)	TLYPHTS (TLYPHTSQV; listed as Homo sapiens) [SEQ ID NO 18]	–	–	–
+++ (50%-70%, +++)	FLIPIYHQV (listed as Homo sapiens) [SEQ ID NO 22]	–	–	–
++++ (>70 = ++++)	ALMDKEGLTAL (listed as Homo sapiens) [SEQ ID NO 9]	–	–	–
++ (20%-49% = ++)	ALYDSVILL (listed as Homo sapiens) [SEQ ID NO 75]	–	–	–
+++ (50%-70%, +++)	YLAPFLRNV (listed as Homo sapiens) [SEQ ID NO 51]	–	–	–
++ (20%-49% = ++)	ILMGTELTQV (listed as Homo sapiens) [SEQ ID NO 84]	–	–	–
++ (20%-49% = ++)	KIYNEFISV (listed as Homo sapiens) [SEQ ID NO 30]	–	–	–
+++ (50%-70%, +++)	AVVEFLTSV (listed as Homo sapiens) [SEQ ID NO 19]	–	–	–
++ (20%-49% = ++)	KLLEYIEEI (listed as Homo sapiens) [SEQ ID NO 71]	–	–	–
+++ (50%-70%, +++)	GLYPDAFAPV (listed as Homo sapiens) [SEQ ID NO 25]	–	–	–
++ (20%-49% = ++)	AILDTLYEV (listed as Homo sapiens) [SEQ ID NO 21]	–	–	–
+ (<20% = +)	SLHFLILYV (listed as Homo sapiens) [SEQ ID NO 38]	–	–	–
++ (20%-49% = ++)	KLFGEKTYL (listed as Homo sapiens) [SEQ ID NO 26]	–	–	–

Reference: patent US10487116B2, “Immunotherapy against several tumors, such as lung cancer, including NSCLC” (IMMATICS BIOTECHNOLOGIES GMBH, priority 2013, dated 2019)
